Changes are numbered by the printed parent chain. In names and notes the source's numbering stands.
B1: human BMP7 protein: wild type human BMP7 protein of Example 2; pro or mature form not stated (protein, UniProt P18075 293-431, looked up)
Bone morphogenetic protein 7: STGSKQRSQNRSKTPKNQEALRMANVAENSSSDQRQACKKHELYVSFRDLGWQDWIIAPEGYAAYYCEGECAFPLNSYMNATNHAIVQTLVHFINPETVPKPCCAPTQLNAISVLYFDDSSNVILKKYRNMVVRACGCH
B2: F93V/N110G: human mature BMP7 protein variant F93V/N110G, SEQ ID NO: 4 (protein)
chain: B1 Bone morphogenetic protein 7 with F93V, N110G
B3: Y65G/I86L/N110G/Y128F: human mature BMP7 protein variant, SEQ ID NO: 6 (protein)
chain: B1 Bone morphogenetic protein 7 with Y65G, I86L, N110G, Y128F
B4: Y65G/I86L/T89A/N110G: human mature BMP7 protein variant, SEQ ID NO: 5 (protein)
chain: B1 Bone morphogenetic protein 7 with Y65G, I86L, T89A, N110G
B5: Y65G/V114M: human mature BMP7 protein variant, SEQ ID NO: 11 (protein)
chain: B1 Bone morphogenetic protein 7 with Y65G, V114M
B6: Y65G/I86L/N110G/Y128W: human mature BMP7 protein variant, SEQ ID NO: 7 (protein)
chain: B1 Bone morphogenetic protein 7 with Y65G, I86L, N110G, Y128W
B7: Y65G/I86L/N110G: human mature BMP7 protein variant, SEQ ID NO: 10 (protein)
chain: B1 Bone morphogenetic protein 7 with Y65G, I86L, N110G
B8: Y65G/T89A/N110G/Y128F: human mature BMP7 protein variant, SEQ ID NO: 9 (protein)
chain: B1 Bone morphogenetic protein 7 with Y65G, T89A, N110G, Y128F
B9: I94F: SEQ ID NO: 2 having the single amino acid mutation I94F (protein, listed as Homo sapiens)
chain: B1 Bone morphogenetic protein 7 with I94F
B10: F93V: SEQ ID NO: 2 having the single amino acid mutation F93V (protein, listed as Homo sapiens)
chain: B1 Bone morphogenetic protein 7 with F93V
B11: V91M: SEQ ID NO: 2 having the single amino acid mutation V91M (protein, listed as Homo sapiens)
chain: B1 Bone morphogenetic protein 7 with V91M
B12: D33M: SEQ ID NO: 2 having the single amino acid mutation D33M (protein, listed as Homo sapiens)
chain: B1 Bone morphogenetic protein 7 with D33M
B13: A37P: SEQ ID NO: 2 having the single amino acid mutation A37P (protein, listed as Homo sapiens)
chain: B1 Bone morphogenetic protein 7 with A37P
B14: E60Q: SEQ ID NO: 2 having the single amino acid mutation E60Q (protein, listed as Homo sapiens)
chain: B1 Bone morphogenetic protein 7 with E60Q
B15: Y65G: SEQ ID NO: 2 having the single amino acid mutation Y65G (protein, listed as Homo sapiens)
chain: B1 Bone morphogenetic protein 7 with Y65G
B16: I86V: SEQ ID NO: 2 having the single amino acid mutation I86V (protein, listed as Homo sapiens)
chain: B1 Bone morphogenetic protein 7 with I86V
B17: V114M: SEQ ID NO: 2 having the single amino acid mutation V114M (protein, listed as Homo sapiens)
chain: B1 Bone morphogenetic protein 7 with V114M
B18: I86L: SEQ ID NO: 2 having the single amino acid mutation I86L (protein, listed as Homo sapiens)
chain: B1 Bone morphogenetic protein 7 with I86L
B19: T89A: SEQ ID NO: 2 having the single amino acid mutation T89A (protein, listed as Homo sapiens)
chain: B1 Bone morphogenetic protein 7 with T89A
B20: N110G: SEQ ID NO: 2 having the single amino acid mutation N110G (protein, listed as Homo sapiens)
chain: B1 Bone morphogenetic protein 7 with N110G

System: RAR alpha
Test: RAR alpha protein expression, Western Blot
Assay type: cell-based, mouse
Conditions: MFc7 and 3T3-L1 cell lines; 1 μg/mL, 48 hours; Western Blot intensity
Description: (§1) 3T3-L1 fibroblasts and MFc7 mouse renal myofibroblasts may be maintained under routine cell culture conditions in DMEM/10% calf serum medium or OPTI-MEM/10% FBS medium, respectively. The cells may be plated in 10 cm tissue culture plates at a seeding density of 500,000 cells/plate. After 48 hours, the cells may be washed with PBS prior to the addition of either DMEM/2% dialyzed FBS or OPTI-MEM/2% dialyzed FBS medium containing 1 μg/mL human BMP7 protein or 1 μg/mL of a human BMP7 protein variant. The cells may be incubated for 48 hours and then rinsed with ice-cold PBS, and then lysed with Protein Extraction Reagent. Then lysates may be centrifuged at 14,000×g for 15 minutes. A Bradford protein assay may be performed to determine the protein concentration of each lysate. Equivalent amounts of protein (for example, 25 μg) may be resolved by SDS-PAGE and then transferred to nitrocellulose membranes for Western Blot analysis. The membranes may be probed with an anti-RAR alpha antibody and/or an anti-RAR gamma antibody.
With B1 the “RAR alpha protein expression” value was “stimulated”.

System: RAR gamma
Test: RAR gamma protein expression, Western Blot
Assay type: cell-based, mouse
Conditions: MFc7 and 3T3-L1 cell lines; 1 μg/mL, 48 hours; Western Blot intensity
Description: as §1
For B1, the “RAR gamma protein expression” value was “stimulated”.

System: MFc7 mouse renal myofibroblasts
Test: MFc7 bioassay
Assay type: cell-based
Conditions: EC50 of wild type BMP7 protein/EC50 of the variant; multiple amino acid changes (Table 3)
Description: MFc7 mouse renal myofibroblasts (mouse kidney fibroblast cell line) may be maintained under routine cell culture conditions in OPTI-MEM/10% FBS medium. The cells may be plated in 10 cm tissue culture plates at a seeding density of 500,000 cells/plate. After approximately 48 hours, the cells may be washed with phosphate buffered saline (PBS) prior to the addition of OPTI-MEM/2% dialyzed fetal bovine serum (FBS) medium containing 1 μg/ml BMP7 protein or 1 μg/ml of a BMP7 protein variant and incubated for 48 hours. After treatment the cells may be rinsed with PBS and stored at −80° C. for 20 minutes. After thawing the cells at 37° C. for 30 minutes 100 μl of para-nitrophenyl phosphate (PNPP) may be added. The plate may be incubated at 37° C. for 1 hour. The absorbance at 405 nm may be read utilizing a plate reader. The average relative potency (EC50 of wild type BMP7 protein/EC50 of the BMP7 protein variant) of certain human BMP7 protein variants of the present invention may be calculated based on such readings.
For B2, the “Average Relative Potency” value was 9.
In the case of B3, the “Average Relative Potency” value is reported as 7.
With B4 the “Average Relative Potency” value was 10.
For B5, the “Average Relative Potency” value was 5.0.
For B6, the “Average Relative Potency” value was 16.
For B7, the “Average Relative Potency” value was 8.7.
With B8 the “Average Relative Potency” value was 6.2.

Same assay, conditions: EC50 of wild type BMP7 protein/EC50 of the variant; single amino acid change (Table 4)
In the case of B9, the “Average Relative Potency” value is reported as 7.5.
In the case of B10, the “Average Relative Potency” value is reported as 16.
In the case of B11, the “Average Relative Potency” value is reported as 3.3.
With B12 the “Average Relative Potency” value was 3.3.
In the case of B13, the “Average Relative Potency” value is reported as 7.5.
With B14 the “Average Relative Potency” value was 5.5.
With B15 the “Average Relative Potency” value was 1.3.
For B16, the “Average Relative Potency” value was 17.4.
In the case of B17, the “Average Relative Potency” value is reported as 9.4.
For B18, the “Average Relative Potency” value was 5.9.
In the case of B19, the “Average Relative Potency” value is reported as 3.
With B20 the “Average Relative Potency” value was 1.7.

System: not listed separately
Test: Thermal unfolding assay (circular dichroism)
Assay type: physicochemical
Conditions: CD at 208 nm; 10 mM citrate, 300 mM NaCl, pH 7.4
Description: The effect of temperature on the conformational stability of human BMP7 protein variants may be followed by circular dichroism (CD) on a Jasco J-810 instrument equipped with a thermoelectric sample compartment. Briefly stated, 0.2-1.0 mg/mL pro-BMP7 may be formulated in storage buffer (10 mM citrate, 300 mM NaCl, pH 7.4) and loaded into a 0.02 cm path-length CD cuvette. The sample may be heated from 20 to 80° C. at a linear rate of 1° C./minute and the resulting CD signal at 208 nm may be recorded every 0.2° C. using a 1 second signal response time. A non-linear fit to equation 1 may be performed by the program JMP (SAS Institute Inc, Cary, N.C.) to obtain the thermal unfolding mid-point (Tm).
[formula] where, Yu and Yf are fit and represent the Y-intercept of the pre- and post-transition baselines, respectively. Mu and Mf are fit and represent the slope of the pre- and post-transition baselines, respectively. Hm and S are fit and represent enthalpy and entropy, respectively. T is the measured temperature in Kelvin units.
For “human pro-BMP7 protein variant V114M: human pro-BMP7 protein variant with V114M in the mature domain”, the “thermal unfolding mid-point (Tm)” value was 64.5 °C.

System: female CB17SC-M SCID mice
Test: Ectopic bone formation model
Assay type: in vivo
Conditions: 3 μg/100 μl subcutaneous; CT scan on Day 13
Description: Ectopic bone formation (EBF) may be measured in female CB17SC-M SCID mice upon subcutaneous administration of certain human BMP7 protein variants of the present invention compared to wild type human mature BMP7.
Briefly described, the mice may be anesthetized with 3% isoflurane and are injected with 3 μg/100 μl of the human BMP7 protein variant, wild type human mature BMP7 protein or a vehicle control on the back left flank. The back right flank of each mouse may serve as a control (no injection). Vehicle (pH 4.5): 0.5% Sucrose, 2.5% Glycine, 5 mM L-Glutamic Acid, 5 mM NaCl, 0.01% polysorbate 80, and, 0.1% BSA.
EBF may be measured by a CT scan on Day 13 after injection of the human BMP7 protein variant or wild type human mature BMP7 protein.
With B6 the “Ectopic Bone Formation Volume” value was 11 mm^3.
